Data as given in US20030223991A1.

Assays:
[1] = target: human CD200Ra (SEQ ID NO:2) (human) (UniProt Q8TD46); test: cell-based or functional assay
[2] = target: mouse CD200Ra (SEQ ID NO:6) (mouse) (UniProt Q9ES57); test: cell-based or functional assay
UniProt Q9ES57, sequence (Q9ES57 26-326 limits assumed): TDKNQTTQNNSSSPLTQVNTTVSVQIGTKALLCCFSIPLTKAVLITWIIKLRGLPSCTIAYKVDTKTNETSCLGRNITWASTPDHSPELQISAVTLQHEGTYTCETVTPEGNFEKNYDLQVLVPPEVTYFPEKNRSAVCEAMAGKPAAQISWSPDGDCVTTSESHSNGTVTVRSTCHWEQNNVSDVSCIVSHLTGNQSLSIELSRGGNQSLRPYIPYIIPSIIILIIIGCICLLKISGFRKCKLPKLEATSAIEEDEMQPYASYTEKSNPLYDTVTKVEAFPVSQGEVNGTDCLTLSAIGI

UniProt Q8TD46, sequence (Q8TD46 other isoform, or with tags, fused parts or gaps limits assumed): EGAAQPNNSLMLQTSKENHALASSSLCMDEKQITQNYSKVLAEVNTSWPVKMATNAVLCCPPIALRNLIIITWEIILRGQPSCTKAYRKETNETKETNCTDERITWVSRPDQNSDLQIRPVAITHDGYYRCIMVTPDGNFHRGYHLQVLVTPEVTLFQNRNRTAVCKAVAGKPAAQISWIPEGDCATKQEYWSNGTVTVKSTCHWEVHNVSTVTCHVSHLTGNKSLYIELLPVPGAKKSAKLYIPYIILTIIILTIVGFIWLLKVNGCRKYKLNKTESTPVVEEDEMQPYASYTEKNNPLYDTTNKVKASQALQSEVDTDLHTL

| Bioassay IC50 (inhibition of mast cell secretion) [2] | Substance | Bioassay IC50 (inhibition of β-hexosaminidase secretion by mouse mast cells expressing human CD200Ra) [1] |
| --- | --- | --- |
|  | huCD200-Ig (from UniProt P41217 31-232) (Fc fusion) | 0.3 nM |
| 1.3 nM | muCD200-Ig (from UniProt O54901 31-232) (Fc fusion) |  |
